# According to patent US20240166767A1 (SCIRHOM, published 2024):
# Where a chain is given by its changes, count along the chain named.
# T1: endogenous human iRhom2 (human, UniProt Q6PJF5 1-856)
# T1 sequence: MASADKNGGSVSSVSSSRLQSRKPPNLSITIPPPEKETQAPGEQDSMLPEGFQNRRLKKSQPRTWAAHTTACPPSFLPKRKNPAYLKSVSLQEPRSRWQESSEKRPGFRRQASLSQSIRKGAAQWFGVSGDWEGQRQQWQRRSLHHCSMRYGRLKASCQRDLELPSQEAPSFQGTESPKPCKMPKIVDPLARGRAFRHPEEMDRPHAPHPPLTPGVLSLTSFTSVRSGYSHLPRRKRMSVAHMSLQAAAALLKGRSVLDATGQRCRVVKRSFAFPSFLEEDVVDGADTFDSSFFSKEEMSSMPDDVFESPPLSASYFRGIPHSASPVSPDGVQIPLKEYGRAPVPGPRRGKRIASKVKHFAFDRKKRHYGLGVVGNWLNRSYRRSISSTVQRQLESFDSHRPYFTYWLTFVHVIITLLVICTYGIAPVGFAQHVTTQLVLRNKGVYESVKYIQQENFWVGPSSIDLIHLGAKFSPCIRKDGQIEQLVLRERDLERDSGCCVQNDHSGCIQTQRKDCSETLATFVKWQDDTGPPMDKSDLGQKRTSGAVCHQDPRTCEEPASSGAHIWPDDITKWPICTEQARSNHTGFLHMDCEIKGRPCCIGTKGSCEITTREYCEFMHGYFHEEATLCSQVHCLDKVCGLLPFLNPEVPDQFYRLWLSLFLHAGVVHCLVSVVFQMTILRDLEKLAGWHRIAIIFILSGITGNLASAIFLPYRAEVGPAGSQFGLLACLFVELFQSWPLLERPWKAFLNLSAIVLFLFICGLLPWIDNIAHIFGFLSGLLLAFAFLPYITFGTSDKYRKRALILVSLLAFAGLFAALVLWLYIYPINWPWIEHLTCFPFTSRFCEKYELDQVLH
# T2: human iRhom2 full length wild type C-terminally tagged with 3 consecutive copies of the T7 epitope (UniProt Q6PJF5 1-856)
# T2 chain: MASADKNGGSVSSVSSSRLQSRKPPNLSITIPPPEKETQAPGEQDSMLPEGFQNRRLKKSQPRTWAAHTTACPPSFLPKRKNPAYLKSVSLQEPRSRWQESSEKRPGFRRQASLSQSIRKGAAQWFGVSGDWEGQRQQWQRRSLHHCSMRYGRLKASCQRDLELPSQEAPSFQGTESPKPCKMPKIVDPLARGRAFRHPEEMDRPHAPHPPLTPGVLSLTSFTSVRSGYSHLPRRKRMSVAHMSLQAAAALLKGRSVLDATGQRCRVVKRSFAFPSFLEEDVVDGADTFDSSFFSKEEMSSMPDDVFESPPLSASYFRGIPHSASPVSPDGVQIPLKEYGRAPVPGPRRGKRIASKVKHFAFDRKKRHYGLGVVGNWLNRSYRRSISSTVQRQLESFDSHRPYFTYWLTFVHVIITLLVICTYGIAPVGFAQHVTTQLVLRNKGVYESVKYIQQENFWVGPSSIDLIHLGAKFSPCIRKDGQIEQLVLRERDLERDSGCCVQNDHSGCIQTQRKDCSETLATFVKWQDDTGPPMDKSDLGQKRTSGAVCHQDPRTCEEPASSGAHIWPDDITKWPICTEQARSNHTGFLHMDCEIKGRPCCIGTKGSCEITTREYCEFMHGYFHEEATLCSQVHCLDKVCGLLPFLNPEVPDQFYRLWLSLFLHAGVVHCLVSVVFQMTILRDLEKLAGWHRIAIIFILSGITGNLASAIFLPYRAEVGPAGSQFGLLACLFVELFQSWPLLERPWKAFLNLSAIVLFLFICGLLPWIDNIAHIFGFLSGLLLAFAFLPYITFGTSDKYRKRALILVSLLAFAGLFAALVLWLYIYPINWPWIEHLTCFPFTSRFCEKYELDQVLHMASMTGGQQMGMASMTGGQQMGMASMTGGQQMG
# B1: humanized antibody 42-B-04 (antibody, V domains shown)
# VH: QVTLRESGPALVKPTQTLTLTCTFSGFSLSTFGRGVGWIRQPPGKALEWLAHIWWDDEKYYNSALKSRLTISKDTSKNQVVLTITNMDPVDTATYYCARIQNYGSNYWYFDVWGQGTLVTVSS
# VL: AIQLTQSPSSLSASVGDRVTITCRASSRISYMFWYQQKPGKAPKVLIYDTSNLASGVPSRFSGSGSGTDYTLTISSLQPEDFATYYCQQWNAYPLTFGQGTKLEIK
# notes: Tested as whole humanized antibody produced in CHO cells and detected with anti-human IgG; the general methods speak of human IgG1/Kappa; also called clone 42-B-04
# B2: humanized antibody 23-B-04 (antibody, V domains shown)
# VH: B1 VH with R34M, Q101S, D111N
# VL: B1 VL with R28S, I29V, F33Y
# notes: Tested as whole humanized antibody produced in CHO cells and detected with anti-human IgG; the general methods speak of human IgG1/Kappa; also called clone 23-B-04
# B3: humanized antibody 42-B-02 (antibody, V domains shown)
# VH: B1 VH
# VL: B1 VL with A92S
# notes: Tested as whole humanized antibody from transient expression of heavy chain/kappa light chain pairs in CHO cells, detected with anti-human IgG; the general methods speak of human IgG1/Kappa; also called clone 42-B-02
# B4: humanized antibody 16-B-07 (antibody, V domains shown)
# VH: QVTLRESGPALVKPTQTLTLTCTFSGFSLSTFALGVGWIRQPPGKALEWLAHIWWDEDKYYNPALKSRLTISKDTSKNQVVLTITNMDPVDTATYYCARITTYYYGMDYWGQGTLVTVSS
# VL: EIVMTQSPDFQSVTPKEKVTITCRASQSIGNHLHWYQQKPDASPKLLIKYASQSISGVPSRFSGSGSGTDFTLTINSLEAEDAATYFCQQSYQWPLTFGQGTKLEIK
# notes: Tested as whole humanized antibody produced in CHO cells and detected with anti-human IgG; the general methods speak of human IgG1/Kappa; also called clone 16-B-07
# B5: humanized antibody 16-B-03 (antibody, V domains shown)
# VH: B4 VH with E57D
# VL: B4 VL
# notes: Tested as whole humanized antibody produced in CHO cells and detected with anti-human IgG; the general methods speak of human IgG1/Kappa; also called clone 16-B-03
# B6: humanized antibody 16-B-05 (antibody, V domains shown)
# VH: B4 VH
# VL: B4 VL with Q93N
# notes: Tested as whole humanized antibody produced in CHO cells and detected with anti-human IgG; the general methods speak of human IgG1/Kappa; The printed LCVD reads SRESGSG where the printed cDNA encodes SRFSGSG; also called clone 16-B-05
# Molecular target: T1, endogenous human iRhom2
# Assay: cell-based or functional assay
Binder,"percent inhibition of LPS-induced release of TNFα from PBMCs from healthy donors (ELISA, antibody 3 µg/ml) [%]","percent inhibition of LPS-induced release of TNFα from THP-1 cells (ELISA, antibody 3 µg/ml) [%]","percent inhibition of PMA-induced release of HB-EGF from PBMCs from healthy donors (ELISA, antibody 3 µg/ml) [%]","percent inhibition of PMA-induced release of HB-EGF from THP-1 cells (ELISA, antibody 3 µg/ml) [%]","percent inhibition of PMA-induced release of HB-EGF from U-937 cells (ELISA, antibody 3 µg/ml) [%]","percent inhibition of PMA-induced release of IL-6R from PBMCs from healthy donors (ELISA, antibody 3 µg/ml) [%]","percent inhibition of PMA-induced release of IL-6R from THP-1 cells (ELISA, antibody 3 µg/ml) [%]","percent inhibition of PMA-induced release of IL-6R from U-937 cells (ELISA, antibody 3.33 µg/ml) [%]","percent inhibition of PMA-induced release of TGFα from PC3 cells (ELISA, antibody 10 µg/ml) [%]","percent inhibition of PMA-induced release of TNFα from U-937 cells (ELISA, antibody 3.33 µg/ml) [%]"
B1,68.5,76.1,66.7,86.2,99.4,78.4,71.6,82.4,19.5,87.9
B2,59.4,77.6,49.6,84.4,99.5,64.6,70.1,77.8,21.3,77.2
B3,64.3,75.2,59.2,81.2,98.8,73.4,68.5,78.3,6.4,85
B4,72.8,77.2,66.5,80.5,99.2,75.4,75.6,77.5,3.3,90.3
B5,74.2,75.1,69.7,80.2,99.2,75,75.6,79.6,15.9,89.8
B6,73.5,78.7,74.8,83,99.7,79,74,81.7,23.8,89

# Molecular target: T2, human iRhom2 full length wild type …
# Assay: FACS Scatchard
row,Binder,Kd [nM]
1,B1,0.48
2,B2,0.58
3,B3,0.5
4,B4,0.99
5,B5,0.67
6,B6,1.07
